Measurements as given in article PMC6906530, “Structural studies of the MMP-3 interaction with triple-helical collagen introduce new roles for the enzyme in tissue remodelling” (Scientific Reports, 2019).

What was measured:
[1] = biological target: collagen I (Guinea pig dermis) (Guinea pig)
[2] = test system: collagen I; conditions: 10:1 molar excess over collagen; cited from earlier work
Excerpt: In both models of collagen fibril assembly, a number of MMP-3 binding sites are concealed, consistent with the observed inhibition of fibrillogenesis in the presence of MMP-3 (Fig. 4g).

Chain of collagen I (Guinea pig dermis) (Guinea pig) (main, as listed by the source, chain 1 of 2): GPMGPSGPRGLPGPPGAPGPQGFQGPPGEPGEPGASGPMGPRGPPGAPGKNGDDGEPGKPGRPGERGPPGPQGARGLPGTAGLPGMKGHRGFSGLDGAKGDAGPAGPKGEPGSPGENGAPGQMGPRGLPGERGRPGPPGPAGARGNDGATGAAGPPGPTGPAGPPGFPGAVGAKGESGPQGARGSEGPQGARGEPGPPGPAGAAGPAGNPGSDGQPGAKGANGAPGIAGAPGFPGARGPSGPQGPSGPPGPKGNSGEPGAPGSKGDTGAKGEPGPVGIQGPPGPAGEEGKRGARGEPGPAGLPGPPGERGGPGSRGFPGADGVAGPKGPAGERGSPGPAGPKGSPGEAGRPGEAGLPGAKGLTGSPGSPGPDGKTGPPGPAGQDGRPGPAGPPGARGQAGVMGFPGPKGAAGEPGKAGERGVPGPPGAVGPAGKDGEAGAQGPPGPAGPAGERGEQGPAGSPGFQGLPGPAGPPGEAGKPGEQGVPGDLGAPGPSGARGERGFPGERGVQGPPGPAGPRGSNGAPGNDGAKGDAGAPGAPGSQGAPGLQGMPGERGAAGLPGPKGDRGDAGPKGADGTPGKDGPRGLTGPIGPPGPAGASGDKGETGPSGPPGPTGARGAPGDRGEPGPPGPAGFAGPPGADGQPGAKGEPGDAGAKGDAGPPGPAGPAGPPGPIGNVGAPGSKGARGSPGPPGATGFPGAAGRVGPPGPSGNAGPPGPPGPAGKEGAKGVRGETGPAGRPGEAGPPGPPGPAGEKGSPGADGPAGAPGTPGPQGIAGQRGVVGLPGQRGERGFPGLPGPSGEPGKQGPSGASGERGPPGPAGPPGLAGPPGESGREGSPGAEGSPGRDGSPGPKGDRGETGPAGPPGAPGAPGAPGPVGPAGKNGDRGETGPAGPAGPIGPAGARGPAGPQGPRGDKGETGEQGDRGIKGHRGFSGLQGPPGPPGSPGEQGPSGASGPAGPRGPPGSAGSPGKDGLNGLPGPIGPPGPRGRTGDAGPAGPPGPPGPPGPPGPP
Chain of collagen I (Guinea pig dermis) (Guinea pig) (partner, as listed by the source, chain 2 of 2): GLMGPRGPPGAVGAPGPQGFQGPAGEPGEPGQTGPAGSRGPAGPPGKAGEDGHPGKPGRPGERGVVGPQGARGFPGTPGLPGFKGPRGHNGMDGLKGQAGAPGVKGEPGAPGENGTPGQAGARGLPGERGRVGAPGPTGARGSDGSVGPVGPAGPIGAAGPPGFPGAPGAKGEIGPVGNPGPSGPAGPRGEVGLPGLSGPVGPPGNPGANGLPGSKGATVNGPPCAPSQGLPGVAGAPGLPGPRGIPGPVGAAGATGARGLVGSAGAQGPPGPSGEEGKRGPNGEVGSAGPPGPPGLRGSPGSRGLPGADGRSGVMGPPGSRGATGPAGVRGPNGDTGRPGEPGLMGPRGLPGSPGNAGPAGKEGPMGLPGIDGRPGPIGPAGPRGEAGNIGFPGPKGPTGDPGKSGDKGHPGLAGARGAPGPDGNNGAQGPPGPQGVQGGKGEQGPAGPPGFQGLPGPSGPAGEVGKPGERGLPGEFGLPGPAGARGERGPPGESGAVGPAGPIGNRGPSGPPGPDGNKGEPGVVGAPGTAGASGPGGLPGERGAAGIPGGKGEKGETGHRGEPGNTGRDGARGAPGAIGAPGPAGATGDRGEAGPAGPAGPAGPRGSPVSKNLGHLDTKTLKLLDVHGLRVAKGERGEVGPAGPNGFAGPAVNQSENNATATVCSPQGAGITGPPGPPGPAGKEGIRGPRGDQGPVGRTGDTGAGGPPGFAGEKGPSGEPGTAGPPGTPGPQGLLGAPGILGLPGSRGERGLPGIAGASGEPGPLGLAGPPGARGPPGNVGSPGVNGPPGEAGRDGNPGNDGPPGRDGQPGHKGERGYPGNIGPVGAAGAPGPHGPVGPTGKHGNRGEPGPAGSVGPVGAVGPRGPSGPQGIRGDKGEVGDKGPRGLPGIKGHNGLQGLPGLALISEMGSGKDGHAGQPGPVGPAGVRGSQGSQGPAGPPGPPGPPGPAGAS

Molecule “mature MMP-3(E200A) (from UniProt P08254 100-477) (enzyme)” has a collagen I fibrillogenesis by turbidity at 500 nm, 37 °C, 1 μM fibrillogenesis-competent collagen I (with telopeptides) with increasing MMP-3(E200A); delay at a ratio of 0.5:1 to collagen I [1] of 50 min.

B1: SPARC: matricellular calcium binding protein, secreted protein acidic and rich in cysteine (protein, UniProt P09486 18-303, looked up)
SPARC: APQQEALPDETEVVEETVAEVTEVSVGANPVQVEVGEFDDGAEETEEEVVAENPCQNHHCKHGKVCELDENNTPMCVCQDPTSCPAPIGEFEKVCSNDNKTFDSSCHFFATKCTLEGTKKGHKLHLDYIGPCKYIPPCLDSELTEFPLRMRDWLKNVLVTLYERDEDNNLLTEKQKLRVKKIHENEKRLEAGDHPVELLARDFEKNYNMYIFPVHWQFGQLDQHPIDGYLSHTELAPLRAPLIPMEHCTTRFFETCDLDNDKYIALDEWAGCFGIKQKDIDKDLVI
For B1, the “Delay of collagen fibrillogenesis relative to MMP-3(E200A)” value [2] is given as “comparably”.
